{"source": "paper PMC4659945", "about": "“X-ray structure and activities of an essential Mononegavirales L-protein domain” (Nature Communications, 2015)", "biological_target": "the molecule itself", "test": "crystal structure; CR-VI+ crystals, space group P2_(1)2_(1)2_(1), two molecules in the asymmetric unit; vapour diffusion at 20.5 °C, PGA-HT screen C11 (pH 6.5) with 0.1 M guanidine hydrochloride"}
{"protein": "CR-VI+ domain of human metapneumovirus (hMPV) L protein (domain or fragment, disulphide between C1877 of the two copies, L protein (large RNA polymerase) of human metapneumovirus isolate 00-1, GenBank AF371337.2, residues 1599-2005 (CR-VI ~1616-1883 and +domain 1884-2005); synthetic gene, codon optimised for Sf cells; The text calls it a 406-residue fragment, but 1599-2005 counts 407 residues; A selenomethionine form was used for phasing; The construct was also expressed in HEK293T and BL21 Star; crystals came from …) NALLTPIPSPMVNLTQVIDPTEQLAYFPKITFERLKNYDTSSNYAKGKLTRNYMILLPWQHVNRYNFVFSSTGCKVSLKTCIGKLMKDLNPKVLYFIGEGAGNWMARTACEYPDIKFVYRSLKDDLDHHYPLEYQRVIGELSRIIDSGEGLSMETTDATQKTHWDLIHRVSKDALLITLCDAEFKDRDDFFKMVILWRKHVLSCRICTTYGTDLYLFAKYHAKDCNVKLPFFVRSVATFIMQGSKLSGSECYILLTLGHHNNLPCHGEIQNSKMKIAVCNDFYAAKKLDNKSIEANCKSLLSGLRIPINKKELNRQRRLLTLQSNHSSVATVGGSKVIESKWLTNKANTIIDWLEHILNSPKGELNYDFFEALENTYPNMIKLIDNLGNAEIKKLIKVTGYMLVSKK", "values": [{"measurement": "stoichiometry N", "result": 2}]}
